These are literature values, as cited in patent publication US6844322B2, “Method for induced lactation” (Monsanto Technology LLC, priority 2000, dated 2005).

The data set relates to cows. The following applies: somatotropin included in the induction protocol (Kensinger et al., 1998).

B1: POSILAC® somatotropin: Sustained-release bovine somatotropin, Monsanto (protein, UniProt P01246 27-217, looked up)
Somatotropin: AFPAMSLSGLFANAVLRAQHLHQLAADTFKEFERTYIPEGQRYSIQNTQVAFCFSETIPAPTGKNEAQQKSDLELLRISLLLIQSWLGPLQFLSRVFTNSLVFGTSDRVYEKLKDLEEGILALMRELEDGTPRAGQILKQTYDKFDTNMRSDDALLKNYGLLSCFRKDLHKTETYLRVMKCRRFGEASCAF
modifications: sustained-release formulation
notes: Sustained-release bovine somatotropin, Monsanto
For B1, the “increase in milk yield compared to cows treated with steroids alone” value is given as 17%.
